Patent US10456446B2, “Use of human small leucine zipper protein in osteogenesis procedure” (Korea University Research and Business Foundation, priority 2013, dated 2019)

Key:
Runx2 = molecular target: T1, Runx2 (Homo sapiens, UniProt Q13950); assay: Runx2 transcriptional activity, luciferase reporter with 6 copies of Runx2 response elements in 293T cells; assay type: cell-based
T1 construct: expressed in transfected cells; host or cells: 293T
Experimental: Appropriately transfected cells were washed with cold PBS twice, and a reporter lysis buffer (Promega) was used and lysed in a culture dish. Luciferase analysis was performed using a luciferase analysis system (Promega Corporation, Madison, Wis.). A luciferase activity was recorded in Luminometer 20/20^n (Turner BioSystems, Sunnyvale, Calif.) according to instructions of the manufacturer. The luciferase activity was normalized to a β-galactosidase activity. For β-galactosidase analysis, CMV-β-galactosidase was transfected with luciferase reporter genes. All pieces of data were represented as mean±standard deviation of the results from at least three independent experiments.
Therefore, in order to characterize a potential role of sLZIP in the transcriptional activity of Runx2 by inhibiting the transcriptional activity of PPARγ2, the transcriptional activity of Runx2 was examined. For this purpose, 293T cells were temporarily transfected with Runx2 (0.5 μg), β-galactosidase (0.1 μg), 6 copies of Runx2 response elements (0.2 μg) and sLZIP at different contents (0.1 μg to 0.5 μg) (FIG. 7A). PPARγ2 (0.5 μg), β-galactosidase, Runx2, 6 copies of Runx2 response elements and sLZIP (0.5 μg) were expressed in the 293T cells (FIG. 7B). 293T cells were temporarily transfected with HDAC3 (0.5 μg), Runx2, β-galactosidase, 6 copies of Runx2 response elements and sLZIP at different contents (0.25 and 0.5 μg) (FIG. 7C). A promoter activity was measured by luciferase analysis. A luciferase activity was normalized to a β-galactosidase activity and represented as a relative activity (fold change). All experiments were repeated three times and data was represented as mean±standard deviation. A medium of primary MSCs and C3H10T1/2 cells of a human was exchanged with a differentiation medium in which 50 μg/mL of ascorbic acid, 10 mM of β-glycerol phosphate and 10% FBS were contained for 8 days (FIG. 7D). A medium of MEF cells was exchanged with a differentiation medium in which 50 μg/mL of ascorbic acid, 10 mM of β-glycerol phosphate and 10% FBS were contained for 8 days. […]

[1] = tested on: primary MSCs and C3H10T1/2 cells; assay: Osteoblast differentiation in primary MSCs and C3H10T1/2 cells; assay type: cell-based; details: differentiation medium for 8 days
Experimental: Primary human mesenchymal stem cells (MSCs), C3H10T1/2, 293T and MEF cells were cultured in a DMEM to which thermally inactivated 10% FBS and penicillin (100 U/mL)/streptomycin (100 μg/mL) were added. All cell types were cultured in a humidified incubator containing CO2 5% under a temperature condition of 37° C. In order to induce osteoblast differentiation, the medium was exchanged with a DMEM in which 50 μg/mL of ascorbic acid, 10 mM of β-glycerophosphate and 10% FBS were contained for 8 days. The differentiation medium was changed once every two days.
C3H10T1/2 and 293T cells were plated in a 12-well culture dish at a density of 2×10^5 cells/well and incubated for 24 hours. Then, according to instructions of the manufacturer, the cells were transfected with a 0.2 μg of reporter genes and 0.1 to 0.5 μg of a laboratory plasmid using Lipofectamine 2000 or Genefectine. After 24 hours, the cells were cultured in a serum-free DMEM with or without 10 nM of rosiglitazone. siRNAs were prepared using sLZIP and HDAC target sequences (Table 1). […]
Therefore, in order to characterize a potential role of sLZIP in the transcriptional activity of Runx2 by inhibiting the transcriptional activity of PPARγ2, the transcriptional activity of Runx2 was examined. […] A promoter activity was measured by luciferase analysis. […]

T1 sequence (Q13950 whole entry, species assumed): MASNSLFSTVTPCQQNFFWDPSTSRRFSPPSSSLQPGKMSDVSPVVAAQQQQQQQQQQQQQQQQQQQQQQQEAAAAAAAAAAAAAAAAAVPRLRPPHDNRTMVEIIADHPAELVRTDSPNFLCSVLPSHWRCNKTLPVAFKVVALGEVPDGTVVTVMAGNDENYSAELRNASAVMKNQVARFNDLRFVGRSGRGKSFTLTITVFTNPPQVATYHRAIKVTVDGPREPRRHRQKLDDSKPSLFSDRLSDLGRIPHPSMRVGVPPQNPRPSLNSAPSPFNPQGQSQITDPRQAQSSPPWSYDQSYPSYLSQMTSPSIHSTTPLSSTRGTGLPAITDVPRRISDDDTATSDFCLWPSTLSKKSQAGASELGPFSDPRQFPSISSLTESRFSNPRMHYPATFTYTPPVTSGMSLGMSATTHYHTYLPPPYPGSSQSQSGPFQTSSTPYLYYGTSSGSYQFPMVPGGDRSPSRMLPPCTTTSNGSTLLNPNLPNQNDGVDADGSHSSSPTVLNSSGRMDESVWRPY

- transcriptional activity of Runx2 (Runx2; PPARγ2 0.5 μg co-expressed, sLZIP 0.5 μg): restored the activity of Runx2
- increase of the transcriptional activity of Runx2 (factor) (Runx2; sLZIP 0.1 μg to 0.5 μg): about 4
B1: sLZIP: human small leucine-zipper protein, isoform of LZIP, 354 amino acids, no transmembrane domain, GenBank FJ263669, SEQ ID NO: 1 (protein, listed as Homo sapiens)
chain: MELELDAGDQDLLAFLLEESGDLGTAPDEAVRAPLDWALPLSEVPSDWEVDDLLCSLLSPPASLNILSSSNPCLVHHDHTYSLPRETVSMDLESESCRKEGTQMTPQHMEELAEQEIARLVLTDEEKSLLEKEGLILPETLPLTKTEEQILKRVRRKIRNKRSAQESRRKKKVYVGGLESRVLKYTAQNMELQNKVQLLEEQNLSLLDQLRKLQAMVIEISNKTSSSSMYSSDTRGSLPAEHGVLSRQLRALPSEDPYQLELPALQSEVPKDSTHQWLDGSDCVLQAPGNTSCLLHYMPQAPSAEPPLEWPFPDLFSEPLCRGPILPLQANLTRKGGWLPTGSPSVILQDRYSG
- transcriptional activity of Runx2 (Runx2; HDAC3 0.5 μg co-expressed, sLZIP 0.25 and 0.5 μg): restored the transcriptional activity of Runx2
- osteoblast differentiation [1]: increased osteoblast differentiation
